Source: the RNAGym collection of RNA variant scans (doi:10.7554/elife.80360)

B1: Twister Ribozyme (parent)
chain: AACACUGCCAAUGCCGGUCCCAAGCCCGGAUAAAAGUGGAGGGGGCGG

Variants of: B1
Assay: self-cleavage, relative activity (ratio to wild type); higher = more cleavage; co-transcriptional

| Variant | self-cleavage |
| --- | --- |
| AACACUGCCAAUGCCGGUCUCAAGCCCGGAUAAAAGUGGAGGGGGAGG | 0.784 |
| AACACUGCCAAUGCCGGUCUCAAGCCCGGAUAAAAGUGGAGGGGGUGG | 0.969 |
| AACACUGCCAAUGCCGGUCUCAAGCCCGGAUAAAAGUUGAGGGGGCGG | 0.742 |
| AACACUGCCAAUGCCGGUCUCAAGCCCGGAUAAAAGUGGAGGGGACGG | 0.838 |
| AACACUGCCAAUGCCGGUCUCAAGCCCGGAUAAAAGUGGAGGGGCCGG | 0.425 |
| AACACUGCCAAUGCCGGUCCGAAGCCCGGAUUAAAGUGGAGGGGGCGG | 0.196 |
| AACACUGCCAAUGCCGGUCUCAAGCCCGGAUAAAAUUGGAGGGGGCGG | 0.0929 |
| AACACUGCCAAUGCCGGUCUCAAGCCCGGAUAAAACUGGAGGGGGCGG | 0.135 |
| AACACUGCCAAUGCCGGUCCGAUGCCCGGAUAAAAGUGGAGGGGGCGG | 0.032 |
| AACACUGCCAAUGCCGGUCCGACGCCCGGAUAAAAGUGGAGGGGGCGG | 0.0558 |
| AACACUGCCAAUGCCGGUCCGAGGCCCGGAUAAAAGUGGAGGGGGCGG | 0.11 |
| AACACUGCCAAUGCCGGUCUCAAGCUCGGAUAAAAGUGGAGGGGGCGG | 0.128 |
| AACACUGCCAAUGCCGGUCUCAAGCACGGAUAAAAGUGGAGGGGGCGG | 0.138 |
| AACACUGCCAAUGCCGGUCCAAAGCCCGGAUAAAAGUGGGGGGGGCGG | 0.0639 |
| AACACUGCCAAUGCCGGUCUCAAGCCCGGAUAAAAGUGGAGGGGGCGG | 1.01 |
| AACACUGCCAAUGCCGGUCCAAAGCGCGGAUAAAAGUGGAGGGGGCGG | 0.0786 |
| AACACUGCCAAUGCCGGUCUCAAGCCCGGAUAAAAGUGGAGCGGGCGG | 0.654 |
| AACACUGCCAAUGCCGGUCGCAAGCCCGGAUAAAAGCGGAGGGGGCGG | 0.0961 |
| AACACUGCCAAUGCCGGUCGCAAGCCCGGAUAAAAGAGGAGGGGGCGG | 0.0911 |
| AACACUGCCAAUGCCGGUCCAAAGCCCGGAUAAAAGAGGAGGGGGCGG | 0.105 |
| AACACUGCCAAUGCCGGUCCAAAGCCCGGUUAAAAGUGGAGGGGGCGG | 0.152 |
| AACACUGCCAAUGCCGGUCCAAAGCCCGGCUAAAAGUGGAGGGGGCGG | 0.079 |
| AACACUGCCAAUGCCGGUCGCAAGCCCGGAUAAAAGUGGAGGGGUCGG | 0.0778 |
| AACACUGCCAAUGCCGGUCCAAAGCCCGGAUCAAAGUGGAGGGGGCGG | 0.169 |
| AACACUGCCAAUGCCGGUCCAAAGCCCGGAUUAAAGUGGAGGGGGCGG | 0.152 |
| AACACUGCCAAUGCCGGUCCGAAGCCCGGAUAACAGUGGAGGGGGCGG | 0.0532 |
| AACACUGCCAAUGCCGGUCUCAAGCCCGGAUAAUAGUGGAGGGGGCGG | 0.404 |

| Variant | self-cleavage |
| --- | --- |
| AACACUGCCAAUGCCGGUCUCAAGCCCGGAUAAGAGUGGAGGGGGCGG | 0.373 |
| AACACUGCCAAUGCCGGUCCAAAGUCCGGAUAAAAGUGGAGGGGGCGG | 0.0609 |
| AACACUGCCAAUGCCGGUCCAAAGGCCGGAUAAAAGUGGAGGGGGCGG | 0.0507 |
| AACACUGCCAAUGCCGGUCCAAAGACCGGAUAAAAGUGGAGGGGGCGG | 0.101 |
| AACACUGCCAAUGCCGGUCCGUAGCCCGGAUAAAAGUGGAGGGGGCGG | 0.118 |
| AACACUGCCAAUGCCGGUCCGGAGCCCGGAUAAAAGUGGAGGGGGCGG | 0.135 |
| AACACUGCCAAUGCCGGUCCGCAGCCCGGAUAAAAGUGGAGGGGGCGG | 0.0386 |
| AACACUGCCAAUGCCGGUCUCCAGCCCGGAUAAAAGUGGAGGGGGCGG | 1.01 |
| AACACUGCCAAUGCCGGUCUCAAGACCGGAUAAAAGUGGAGGGGGCGG | 0.078 |
| AACACUGCCAAUGCCGGUCUCAAGCCCGGAUAAAAGUGGAGGCGGCGG | 0.125 |
| AACACUGCCAAUGCCGGUCUCAAGCCCGGAUAAAAGUGCAGGGGGCGG | 0.0926 |
| AACACUGCCAAUGCCGGUCUCAAGCCCGGAUAAAAGUGUAGGGGGCGG | 0.15 |
| AACACUGCCAAUGCCGGUCCAAAGCCCGGAUAAAAGUGGAGGGGGCGC | 0.171 |
| AACACUGCCAAUGCCGGUCUCAAGCCCGGAUAUAAGUGGAGGGGGCGG | 0.778 |
| AACACUGCCAAUGCCGGUCCAAAGCCCAGAUAAAAGUGGAGGGGGCGG | 0.0792 |
| AACACUGCCAAUGCCGGUCUCAAGCCCGGAUAAAAGUGGCGGGGGCGG | 0.0976 |
| AACACUGCCAAUGCCGGUCUCAAGCCCGGAUAAAAGGGGAGGGGGCGG | 0.702 |
| AACACUGCCAAUGCCGGUCUCAAGCCCUGAUAAAAGUGGAGGGGGCGG | 0.906 |
| AACACUGCCAAUGCCGGUCCGAAGCCCGGCUAAAAGUGGAGGGGGCGG | 0.0405 |
| AACACUGCCAAUGCCGGUCCGAAGCCCGGGUAAAAGUGGAGGGGGCGG | 0.0493 |
| AACACUGCCAAUGCCGGUCCAAAGCCCGCAUAAAAGUGGAGGGGGCGG | 0.0813 |
| AACACUGCCAAUGCCGGUCCAAAGCCCGAAUAAAAGUGGAGGGGGCGG | 0.132 |
| AACACUGCCAAUGCCGGUCUCAAGCCCGGAUAAAAGUGGACGGGGCGG | 0.133 |
| AACACUGCCAAUGCCGGUCUCAAUCCCGGAUAAAAGUGGAGGGGGCGG | 0.0768 |
| AACACUGCCAAUGCCGGUCUCAACCCCGGAUAAAAGUGGAGGGGGCGG | 0.0962 |
| AACACUGCCAAUGCCGGUCUCAAGCCCGGAAAAAAGUGGAGGGGGCGG | 0.68 |
| AACACUGCCAAUGCCGGUCGCAAGCCCGGAUAAAAGUGGAGGGGGCGC | 0.157 |
